Results published in publication PMC5780489, “Characterization of the multimeric structure of poly(A)-binding protein on a poly(A) tail” (Scientific Reports, 2018).

Target: T1, PABPC1 RRM1/2/3/4 (residues 1-370) (human, UniProt P11940 1-370)
T1 construct: human PABPC1, residues 1-370 (RRM1 to RRM4), cloned into pET-42b(+); Used in complex with long poly(A) or A24 RNA; Purification details are in the Supplementary methods; source: E. coli, purified (Glutathione-Sepharose 4B, GST cleaved off, cation exchange, gel filtration)
T1 sequence (P11940 1-370): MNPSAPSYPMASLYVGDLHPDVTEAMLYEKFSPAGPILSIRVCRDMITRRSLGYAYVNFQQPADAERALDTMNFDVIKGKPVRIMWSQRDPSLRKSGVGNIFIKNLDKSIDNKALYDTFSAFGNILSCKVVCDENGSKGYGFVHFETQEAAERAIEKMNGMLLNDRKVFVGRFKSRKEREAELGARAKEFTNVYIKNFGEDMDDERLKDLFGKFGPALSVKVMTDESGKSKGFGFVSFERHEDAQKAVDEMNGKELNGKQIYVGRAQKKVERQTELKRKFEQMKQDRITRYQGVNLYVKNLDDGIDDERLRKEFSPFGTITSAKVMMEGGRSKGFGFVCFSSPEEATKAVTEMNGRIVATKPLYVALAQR
Assay: NMR titration; 1H-15N HSQC of 15N-labelled Lt2 (100 μM) with RRM1/2/3/4-A24 at 50, 100 and 150 μM; chemical shift changes of W437 side chain, W437 and T438 fitted to a 1:1 model; not saturated; 303 K, 26 mM NaH2PO4 pH 6.0, 100 mM NaCl
Conditions: both partners purified

Kd: 10 to 54 µM
B1: PABPC1 linker fragment Lt2 (residues 421-470) (peptide, UniProt P11940 421-470, looked up)
chain: AYYPPSQIAQLRPSPRWTAQGARPHPFQNMPGAIRPAAPRPPFSTMRPAS
notes: human PABPC1, residues 421-470, cloned into pGEX-6p-1; Uniformly 15N-labelled for NMR
